According to patent US20170233490A1 (Hoffmann-La Roche, published 2017):

How the values were obtained:
Experiment in all cases: SPR Biacore T200, antibody captured, 25 C
HER4 ECD-HRG complex = target: T1, HER4 ECD-HRG complex (human, UniProt Q15303 26-651)
T1 construct: HER4 ECD preincubated with a 5-fold molar excess of Heregulin
T1 sequence 1: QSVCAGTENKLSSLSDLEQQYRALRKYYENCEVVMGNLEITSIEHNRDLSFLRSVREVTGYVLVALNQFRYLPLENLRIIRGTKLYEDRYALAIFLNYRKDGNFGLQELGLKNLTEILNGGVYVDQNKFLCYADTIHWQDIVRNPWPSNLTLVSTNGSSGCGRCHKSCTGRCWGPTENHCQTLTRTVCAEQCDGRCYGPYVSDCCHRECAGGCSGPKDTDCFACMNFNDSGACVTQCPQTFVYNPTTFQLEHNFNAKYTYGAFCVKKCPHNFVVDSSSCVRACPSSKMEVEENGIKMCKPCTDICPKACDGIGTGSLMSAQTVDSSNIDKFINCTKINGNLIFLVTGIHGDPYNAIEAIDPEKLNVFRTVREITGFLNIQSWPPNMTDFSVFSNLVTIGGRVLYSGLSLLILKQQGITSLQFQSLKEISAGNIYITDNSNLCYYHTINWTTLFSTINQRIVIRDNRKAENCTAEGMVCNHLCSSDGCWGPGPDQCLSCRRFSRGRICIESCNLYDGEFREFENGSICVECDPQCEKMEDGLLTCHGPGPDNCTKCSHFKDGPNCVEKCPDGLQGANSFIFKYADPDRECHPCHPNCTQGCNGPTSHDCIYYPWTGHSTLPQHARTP
T1 sequence 2: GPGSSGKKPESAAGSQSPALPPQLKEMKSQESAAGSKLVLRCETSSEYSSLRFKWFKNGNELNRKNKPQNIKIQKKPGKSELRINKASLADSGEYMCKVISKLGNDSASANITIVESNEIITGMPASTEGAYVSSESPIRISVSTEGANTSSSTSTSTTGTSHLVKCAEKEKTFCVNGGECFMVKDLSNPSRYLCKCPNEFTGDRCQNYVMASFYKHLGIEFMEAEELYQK
Description: (§1) A Biacore T200 instrument (GE Healthcare) was mounted with a CMS series sensor. The sensor was normalized in HBS-ET buffer (10 mM HEPES pH 7.4, 150 mM NaCl, 3 mM EDTA, 0.05% w/v Tween 20) according to the manufacturer's instructions. The sample buffer was the system buffer supplemented with 1 mg/ml CMD (Carboxymethyldextran, Sigma #86524). The system operated at 25° C. 6500 RU RAM-Fcγ (relative units of Fcγ-fragment RamIgG, GE Healthcare) were immobilized according to the manufacturer's instructions using amine coupling EDC/NHS chemistry on all four flow cells. The sensor was deactivated using 1M ethanolamine. […] Concentration dependent kinetics were measured. […] All analytes were injected for 5 min association time and 10 min dissociation time at 100 μl/min flow rate. The sensor capture system was regenerated by a 3 min injection at 10 μl/min of 10 mM glycine pH 1.7. Where possible kinetic data was evaluated using the Biacore T200 evaluation software.

TtSlyDcys-Her3 = target: T2, TtSlyDcys-Her3
T2 chain: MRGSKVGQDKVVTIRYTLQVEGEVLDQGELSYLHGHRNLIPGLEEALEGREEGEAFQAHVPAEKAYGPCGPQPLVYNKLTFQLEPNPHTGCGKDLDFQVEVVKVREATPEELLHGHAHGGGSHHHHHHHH
Description: as §1

[1] = target: T3, human HER1 Extracellular Domain (ECD) (human, UniProt P00533 25-645)
T3 construct: also called Her1 ECD; HER1-ECD
Description: as §1

HER3 ECD-HRG complex = target: T4, HER3 ECD-HRG complex (human, UniProt P21860 20-643)
T4 construct: HER3 ECD preincubated with a 3- to 6-fold molar excess of Heregulin ('open' conformation); biotinylated Her3-ECD in the ribosome display; also called HER3-ECD/HRG1β
Description: as §1

[2] = target: T5, human HER3 Extracellular Domain (ECD) (human, UniProt P21860 20-643)
T5 construct: human recombinant, 68 kDa; 'closed' conformation without ligand; also called Her3 ECD; Her-3 ECD
Description: as §1

[3] = target: T6, human HER4 Extracellular Domain (ECD) (human, UniProt Q15303 26-651)
T6 construct: also called Her4 ECD; HER4-ECD
T6 sequence: T1 sequence 1
Description: as §1

B1: anti-HER3/HER4 antibody M-05-74 (antibody, V domains shown)
VH: QVQLQQSGAELAKPGASVKMSCKTSGYTLTDYWIHWVKQRPGQGLEWIGYINPYTGYTESNQKFKDKATLTADKSSNTAYIQLSSLTSEDSAVYYCARPYYYGDYWGQGTTLTVSS
VL: QIVLTQSPAIMSASPGERVTITCSASSSVSYMHWFQQKPGTSPKLLIYSTSNLASGVPARFSGSGSGTSYSLTISRMEAEDAATYYCQQRSSYPFTFGSGTKLEIK
notes: murine monoclonal IgG from hybridoma (supernatant or purified), bivalent; also called M-074; M-5-74
Kd (HER4 ECD-HRG complex): 8.1 nM | MR (Molar Ratio) (HER4 ECD-HRG complex): 0.8 | koff (HER4 ECD-HRG complex): 0.00081 s⁻¹ | kon (HER4 ECD-HRG complex): 99000 M⁻¹ s⁻¹ | Kd (TtSlyDcys-Her3): 7.8 nM | MR (Molar Ratio) (TtSlyDcys-Her3): 1.9 | koff (TtSlyDcys-Her3): 0.00024 s⁻¹ | kon (TtSlyDcys-Her3): 30000 M⁻¹ s⁻¹ | binding result [1]: no binding (tested: up to 90 nM) | Kd (HER3 ECD-HRG complex): 2.8 nM | MR (Molar Ratio) (HER3 ECD-HRG complex): 0.8 | koff (HER3 ECD-HRG complex): 0.00029 s⁻¹ | kon (HER3 ECD-HRG complex): 100000 M⁻¹ s⁻¹ | Kd [2]: 1.1 nM | MR (Molar Ratio) [2]: 0.1 | koff [2]: 0.00011 s⁻¹ | kon [2]: 96000 M⁻¹ s⁻¹ | Kd [3]: 51 nM | MR (Molar Ratio) [3]: 0.1 | koff [3]: 0.00082 s⁻¹ | kon [3]: 16000 M⁻¹ s⁻¹
